{
  "source": "patent US20240400717A1",
  "about": "“Antibody Binding to CHI3L1 for Treating Cancer” (National Cheng Kung University, priority 2021, published 2024)",
  "key": {"[1]": {"molecular_target": "CHI3L1-receptor(s) interaction on HCT116, SW480, SW620, PANC1 and MiaPaCa-2 (Homo sapiens, UniProt P36222)", "sequence (P36222 22-383)": "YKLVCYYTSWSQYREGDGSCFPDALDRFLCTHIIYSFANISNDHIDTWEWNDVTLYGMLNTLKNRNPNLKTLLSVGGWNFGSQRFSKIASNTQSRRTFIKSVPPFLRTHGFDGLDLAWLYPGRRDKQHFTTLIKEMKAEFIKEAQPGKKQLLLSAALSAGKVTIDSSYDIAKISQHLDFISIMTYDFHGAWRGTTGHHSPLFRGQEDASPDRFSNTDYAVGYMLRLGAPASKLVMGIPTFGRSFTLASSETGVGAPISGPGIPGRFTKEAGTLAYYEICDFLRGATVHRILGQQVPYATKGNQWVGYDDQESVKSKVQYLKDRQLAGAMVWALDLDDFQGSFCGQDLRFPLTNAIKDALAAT", "test": "Flow cytometry blockage of rCHI3L1-receptor(s) interaction, colorectal and pancreatic cancer cell lines", "type": "cell-based", "settings": "HCT116, SW480, SW620, PANC1, MiaPaCa-2, flow cytometry", "description": "CHI3L1 have been reported to interact with several receptors on cancer cells, and trigger downstream signaling for cancer cell growth, proliferation and anti-apoptosis (Kamba et al. 2013; Lee et al. 2016). […] His-tagged rCHI3L1 was added for CHI3L1-receptor(s) interaction. Anti-His antibody AHAb with fluorescent F recognized CHI3L1-receptor(s) R complex for detection (left, FIG. 4A). Once fully human mAbs (nCHI3L1 Ab) blocked the CHI3L1-receptor(s) interaction, the fluorescent F signals were decreased (right, FIG. 4A) and cell signaling CS was blockade.\nFour selected clones of mAbs including R4-4, R4-54, 293R3-2, and 293R3-4 were further tested for blocking effect on human colorectal (HCT116, SW480, and SW620) and pancreatic cancer cell lines (PANC1 and MiaPaCa-2). […] P values were determined by one-way ANOVA. * P<0.05, ** P<0.01, *** P<0.001, **** P<0.0001. For binding specificity examination, we further coated different concentration of recombinant CHI3L1 protein, and two other major proteins in chitinase family including human chitotriosidase-1 (CHIT1) and CHI3L2 from 2.5 μg/ml to 0 μg/ml, on 96-well plate."}, "[2]": {"molecular_target": "T1, CHI3L1 binding to IL-13Rα2 on A549 cell line (Homo sapiens, UniProt P36222)", "T1 construct": "host or cells: A549 cells carry the receptor", "T1 sequence (P36222 22-383)": "as above", "test": "Functional screen: block of CHI3L1 binding to IL-13Rα2 on A549 cell line", "type": "cell-based", "settings": "A549 cells, compared with CHI3L1 only", "text": "CHI3L1 is known to associate with different receptors, such as IL-13Rα2 (He et al. 2013), CRTH2 (Zhou et al. 2015), TMEM219 (Lee et al. 2016), and galectin-3 (Zhou et al. 2015). […] Therefore, purified antibody leads were functionally screened for their ability to block CHI3L1 binding to IL-13Rα2 on A549 cell line (FIG. 3A). […] The sequences and defied CDR regions among those monoclonal antibodies are listed and summarized in the sequences list (SEQ ID NOs: 1 to 88) and Table 2, respectively. Anti-CHI3L1 clone R4-2 heavy chain (SEQ ID NO: 1), anti-CHI3L1 clone R4-2 light chain (SEQ ID NO: 2), anti-CHI3L1 clone R4-4 heavy chain (SEQ ID NO: 9), anti-CHI3L1 clone R4-4 light chain (SEQ ID NO: 10), anti-CHI3L1 clone R4-39 heavy chain (SEQ ID NO: 17), anti-CHI3L1 clone R4-39 light chain (SEQ ID NO: 18), anti-CHI3L1 clone R4-53 heavy chain (SEQ ID NO: 25), anti-CHI3L1 clone R4-53 light chain (SEQ ID NO: 26), anti-CHI3L1 clone R4-54 heavy chain (SEQ ID NO: 33), anti-CHI3L1 clone R4-54 light chain (SEQ ID NO: 34), anti-CHI3L1 clone R4-62 heavy chain (SEQ ID NO: 41), anti-CHI3L1 clone R4-62 light chain (SEQ ID NO: 42), anti-CHI3L1 clone R4-63 heavy chain (SEQ ID NO: 49), anti-CHI3L1 clone R4-63 light chain (SEQ ID NO: 50), anti-CHI3L1 clone R4-93 heavy chain (SEQ ID NO: 57), anti-CHI3L1 clone R4-93 light chain (SEQ ID NO: 58), anti-CHI3L1 clone 293R3-2 heavy chain (SEQ ID NO: 65), anti-CHI3L1 clone 293R3-2 light chain (SEQ ID NO: 66), anti-CHI3L1 clone 293R3-4 heavy chain (SEQ ID NO: 73), anti-CHI3L1 clone 293R3-4 light chain (SEQ ID NO: 74), anti-CHI3L1 clone 293R3-5 heavy chain (SEQ ID NO: 81), and anti-CHI3L1 clone 293R3-5 light chain (SEQ ID NO: 82) are shown in sequence listing."}, "HCT116 and A549 cells": {"test_system": "HCT116 and A549 cells", "test": "Immunoblot of rCHI3L1-induced AKT and ERK phosphorylation, HCT116 and A549", "type": "cell-based, human", "settings": "HCT116 and A549, time course", "description": "(§1) The involvement of CHI3L1 in intracellular signaling pathways has been reported. For example, CHI3L1 binding to CD44 activates protein kinase B (AKT) and extracellular signal-regulated kinase (ERK) signaling to promote cancer progression (Chen, Jiang et al. 2021). Thus, we tested whether mAb clones R4-4, R4-54, 293R3-2, and 293R3-4 could attenuate AKT and ERK phosphorylation in human pancreatic (PANC1), colorectal (HCT116), and lung (A549) cancer cell lines. PANC1 cells were treated with rCHI3L1 (100 ng/ml) only or rCHI3L1 with different dose of mAbs as indicated for 20 minutes."}, "SW480 and SW620 cells": {"test_system": "SW480 and SW620 cells", "test": "rCHI3L1-induced foci formation", "type": "cell-based, human"}, "hCHI3L1/flag-His": {"molecular_target": "T2, hCHI3L1/flag-His (Homo sapiens, UniProt P36222)", "T2 construct": "human CHI3L1 extracellular domain fused with flag and His tag", "T2 sequence (P36222 22-383)": "as above", "test": "ForteBio biolayer interferometry binding analysis", "settings": "for koff / kon: mAb loaded on AHC sensor, analyte hCHI3L1", "description": "Anti-CHI3L1 mAbs were loaded at 5 μg/mL on AHC (Anti-Human IgG Fc Capture, ForteBio, Cat #18-5060) for signal reach to approximate 0.5 nm. Sensors then were exposed to human CHI3L1 extracellular domain fused with flag and His tag recombinant protein, hCHI3L1/flag-His, solutions at 10 nM with 2 time serial dilution for 7 concentrations. Measurement were performed as follows: 1 min baseline in kinetic buffer, 5 minute association in 7 different concentrations hCHI3L1/flag-His and 5 minute dissociation into kinetic buffer. The kinetic parameters were calculated and produced by Octet Data Acquisition and Analysis Software."}, "PANC1 cells": {"test_system": "PANC1 cells", "test": "Immunoblot of rCHI3L1-induced AKT and ERK phosphorylation, PANC1", "type": "cell-based, human", "settings": "PANC1, rCHI3L1 100 ng/ml, 20 minutes, different dose of mAbs", "description": "as §1"}},
  "data": [
    {"molecule": "293R3-2: fully human anti-CHI3L1 IgG1 mAb, Table 1 No. 2; heavy chain SEQ ID NO: 65, light chain SEQ ID NO: 66 (antibody, listed as Homo sapiens) VH: QVQLQESGPGLVEPSGTLSLTCAVSGGSISSSNWWSWVRQHPGKGLEWIGEIYHSGSTNYNPSLRSRVTISVDKSKNQFSLELSSVTAADTAVYYCAGDQRMEDDAFDIWGQGTMVTVSS light: QSALTQPASVSGSPGQSITISCTGTSSDVGGYNYVSWYQQHPGKAPKLMIYDVSNRPSGVSNRFSGSKSGNTASLTISGLQAEDEADYYCSSYTSSSTLYVFGTGTKVTVLGQPKANPTVTLFPPSSEELQANKATLVCLISDFYPGAVTVAWKADGSPVKAGVETTKPSKQSNNKYAASSYLSLTPEQWKSHRSYSCQVTHEGSTVEKTVAPTECS", "values": [
      {"measurement": "rCHI3L1 binding to cells", "setting": "[1]", "value": "significantly reduced"},
      {"measurement": "CHI3L1 neutralizing activity", "setting": "[2]", "value": "best neutralizing activity"},
      {"measurement": "p-AKT and p-ERK levels induced by rCHI3L1", "setting": "HCT116 and A549 cells", "value": "Inhibition of p-AKT and p-ERK"},
      {"measurement": "number of foci", "setting": "SW480 and SW620 cells", "value": "decreased in a dose-dependent manner"},
      {"measurement": "koff", "setting": "hCHI3L1/flag-His", "value": 0.00302, "unit": "s⁻¹"},
      {"measurement": "kon", "setting": "hCHI3L1/flag-His", "value": "1.08e+06", "unit": "M⁻¹ s⁻¹"},
      {"measurement": "p-AKT and p-ERK levels induced by rCHI3L1", "setting": "PANC1 cells", "value": "inhibited p-AKT and p-ERK levels induced by rCHI3L1 in a dose dependent manner"}
    ]},
    {"molecule": "293R3-4: fully human anti-CHI3L1 IgG1 mAb, Table 1 No. 4; heavy chain SEQ ID NO: 73, light chain SEQ ID NO: 74 (antibody, listed as Homo sapiens) VH: EVQLVQSGAEVKKPGATVKISCKVSGYSFTDYYIHWVQQAPGKGLEWMGFVDPENGETIYAEKFQGRVTITADTSTDTAYMELSSLRSDDTAVYYCATDRDYDDSSGNAFDIWGQGTMVTVSS light: SYELTQPPSVSVSTGQTATITCSGDILGDEYAFWYQQKAGQSPVLVIYLDTRRPSGIPERFSGSNSGDTATLTISETQPVDEAVYFCQGWDSSTALYVFGTGTKVTVLGQPKANPTVTLFPPSSEELQANKATLVCLISDFYPGAVTVAWKADGSPVKAGVETTKPSKQSNNKYAASSYLSLTPEQWKSHRSYSCQVTHEGSTVEKTVAPTECS", "values": [
      {"measurement": "rCHI3L1 binding to cells", "setting": "[1]", "value": "significantly reduced"},
      {"measurement": "CHI3L1 neutralizing activity", "setting": "[2]", "value": "best neutralizing activity"},
      {"measurement": "p-AKT and p-ERK levels induced by rCHI3L1", "setting": "HCT116 and A549 cells", "value": "Inhibition of p-AKT and p-ERK"},
      {"measurement": "number of foci", "setting": "SW480 and SW620 cells", "value": "decreased in a dose-dependent manner"},
      {"measurement": "koff", "setting": "hCHI3L1/flag-His", "value": 0.00722, "unit": "s⁻¹"},
      {"measurement": "kon", "setting": "hCHI3L1/flag-His", "value": "1.83e+06", "unit": "M⁻¹ s⁻¹"},
      {"measurement": "p-AKT and p-ERK levels induced by rCHI3L1", "setting": "PANC1 cells", "value": "inhibited p-AKT and p-ERK levels induced by rCHI3L1 in a dose dependent manner"}
    ]},
    {"molecule": "R4-54: fully human anti-CHI3L1 IgG1 mAb, Table 1 No. 34; heavy chain SEQ ID NO: 33, light chain SEQ ID NO: 34 (antibody, listed as Homo sapiens) VH: QVQLVESGGGVVQPGRSLRLSCAASGFTFSSYGMHWVRQAPGKGLEWVAVISYDGSDKDYADSVKGRFTISRDNSKNTLFLQMNSLRAEDTAVYYCARDDYDSTYYFDNWGQGTTVTVSS light: SYELTQPPSVSVSPGQTASITCSGDILADQYASWYQQKPGQSPVLVIYHDTKRPSGVPERFSGSTSGNTATLTISGTQAMDEAAYYCQAWDINTAWVFGGGTQLTVLGQPKAAPSVTLFPPSSEELQANKATLVCLISDFYPGAVTVAWKADSSPVKAGVETTTPSKQSNNKYAASSYLSLTPEQWKSHRSYSCQVTHEGSTVEKTVAPTECS", "values": [
      {"measurement": "rCHI3L1 binding to cells", "setting": "[1]", "value": "significantly reduced"},
      {"measurement": "CHI3L1 neutralizing activity", "setting": "[2]", "value": "best neutralizing activity"},
      {"measurement": "p-AKT and p-ERK levels induced by rCHI3L1", "setting": "HCT116 and A549 cells", "value": "Inhibition of p-AKT and p-ERK"},
      {"measurement": "number of foci", "setting": "SW480 and SW620 cells", "value": "decreased in a dose-dependent manner"},
      {"measurement": "koff", "setting": "hCHI3L1/flag-His", "value": 0.0065, "unit": "s⁻¹"},
      {"measurement": "kon", "setting": "hCHI3L1/flag-His", "value": "1.54e+06", "unit": "M⁻¹ s⁻¹"},
      {"measurement": "p-AKT and p-ERK levels induced by rCHI3L1", "setting": "PANC1 cells", "value": "inhibited p-AKT and p-ERK levels induced by rCHI3L1 in a dose dependent manner"}
    ]},
    {"molecule": "R4-4: fully human anti-CHI3L1 IgG1 mAb, Table 1 No. 9; heavy chain SEQ ID NO: 9, light chain SEQ ID NO: 10 (antibody, listed as Homo sapiens) VH: EVQLLESGGGLLQPGGSLRLSCAASGLTFRNYAMTWVRQAPGKGLEWVSTISGNGDETFYADSVKGHFTISRDNSKDTVYLQMNSLRAEDTAVYYCAKGGHYSFFDSWGQGSPVTVSS light: NFMLTQPHSVSESPGKTVTISCTRSSGSIASNYVQWYQQRPGSSPTTVIYEDNQRPSGVPDRFSGSIDSSSNSASLTISGLKTEDEADYYCQSYDSSNYVFGTGTKVTVLGQPKANPTVTLFPPSSEELQANKATLVCLISDFYPGAVTVAWKADGSPVKAGVETTKPSKQSNNKYAASSYLSLTPEQWKSHRSYSCQVTHEGSTVEKTVAPAECS", "values": [
      {"measurement": "rCHI3L1 binding to cells", "setting": "[1]", "value": "significantly reduced"},
      {"measurement": "p-AKT and p-ERK levels induced by rCHI3L1", "setting": "HCT116 and A549 cells", "value": "Inhibition of p-AKT and p-ERK"},
      {"measurement": "number of foci", "setting": "SW480 and SW620 cells", "value": "decreased in a dose-dependent manner"},
      {"measurement": "binding kinetics profile compare to other mAbs", "setting": "hCHI3L1/flag-His", "value": "slower on-rate (kon) and off-rate (koff)"},
      {"measurement": "koff", "setting": "hCHI3L1/flag-His", "value": 0.000353, "unit": "s⁻¹"},
      {"measurement": "p-AKT and p-ERK levels induced by rCHI3L1", "setting": "PANC1 cells", "value": "inhibited p-AKT and p-ERK levels induced by rCHI3L1 in a dose dependent manner"}
    ]}
  ]
}
